Measurements reported in US20100166741A1 (Genentech, published 2010).

T1: human FcγRIIb extracellular domain, His-tagged GST fusion (human, UniProt P31994 43-217)
T1 construct: extracellular domain; also called hFcgRIIb; CD32B; not shown: C-terminal Gly/His6/GST tag
T1 sequence (looked up): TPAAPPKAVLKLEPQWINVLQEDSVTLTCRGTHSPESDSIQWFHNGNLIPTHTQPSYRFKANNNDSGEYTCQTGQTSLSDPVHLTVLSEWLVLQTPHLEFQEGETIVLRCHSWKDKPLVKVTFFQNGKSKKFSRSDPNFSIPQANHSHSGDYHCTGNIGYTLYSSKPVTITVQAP

T2: human FcγRIIa extracellular domain, His-tagged GST fusion (human, UniProt P12318 34-217)
T2 construct: extracellular domain; also called hFcgRIIa; CD32A; not shown: C-terminal Gly/His6/GST tag
T2 sequence (looked up): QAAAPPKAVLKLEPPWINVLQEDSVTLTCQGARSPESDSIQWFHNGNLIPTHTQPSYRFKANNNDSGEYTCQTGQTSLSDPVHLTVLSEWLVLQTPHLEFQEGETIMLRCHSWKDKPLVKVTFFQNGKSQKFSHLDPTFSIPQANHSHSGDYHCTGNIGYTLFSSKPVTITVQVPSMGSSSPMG

T3: mouse FcγRII extracellular domain, His-tagged GST fusion (mouse, UniProt P08101 30-210)
T3 construct: extracellular domain; also called Mouse II; not shown: His tag and GST
T3 sequence (looked up): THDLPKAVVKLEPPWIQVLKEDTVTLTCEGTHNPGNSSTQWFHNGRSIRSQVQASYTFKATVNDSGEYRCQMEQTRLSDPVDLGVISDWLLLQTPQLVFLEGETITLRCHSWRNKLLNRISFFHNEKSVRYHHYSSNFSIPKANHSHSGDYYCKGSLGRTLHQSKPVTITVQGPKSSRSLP

T4: mouse FcγRI extracellular domain, His-tagged GST fusion (mouse, UniProt P26151 25-297)
T4 construct: extracellular domain; also called Mouse I; mFcγRI; not shown: His tag and GST
T4 sequence (looked up): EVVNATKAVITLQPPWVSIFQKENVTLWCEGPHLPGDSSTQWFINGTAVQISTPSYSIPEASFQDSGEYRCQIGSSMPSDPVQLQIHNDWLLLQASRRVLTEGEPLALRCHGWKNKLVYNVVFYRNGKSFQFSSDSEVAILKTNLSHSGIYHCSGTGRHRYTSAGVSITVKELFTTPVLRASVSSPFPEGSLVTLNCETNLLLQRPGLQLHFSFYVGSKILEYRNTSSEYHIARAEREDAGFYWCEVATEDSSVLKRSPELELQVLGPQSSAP

T5: mouse FcγRIII extracellular domain, His-tagged GST fusion (mouse, UniProt P08508 31-215)
T5 construct: extracellular domain; also called Mouse III; not shown: His tag and GST
T5 sequence (looked up): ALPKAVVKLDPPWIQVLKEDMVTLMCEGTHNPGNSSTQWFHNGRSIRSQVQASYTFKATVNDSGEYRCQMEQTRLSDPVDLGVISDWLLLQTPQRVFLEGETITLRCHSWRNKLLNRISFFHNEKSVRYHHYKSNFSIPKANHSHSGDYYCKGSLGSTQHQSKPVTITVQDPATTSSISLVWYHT


How the values were obtained:
[1] = target: T6, human BR3 on the cell surface (BJAB cells; primary human B cells) (human, UniProt Q96RJ3 1-184); experiment: BJAB binding assay
T6 construct: whole, on cells; also called BAFF-R; cell surface BR3

[2] = target: T1, human FcγRIIb extracellular domain, …; experiment: ELISA, FcγR-His-GST captured by anti-GST, complexed IgG
[3] = target: T2, human FcγRIIa extracellular domain, …; experiment: as above
[4] = target: T7, human BR3 extracellular domain (human, UniProt Q96RJ3 1-78); experiment: BIAcore, IgG on chip, BR3 ECD in solution, 1:1 Langmuir model
T7 construct: extracellular domain; also called BR3 ECD; Br3 ECD WT

[5] = target: T3, mouse FcγRII extracellular domain, …; experiment: ELISA, captured FcγR-GST;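 note: antibody variants applied as dilution series to receptor wells, with retained antibody read out via an HRP-linked goat F(ab′)2 fragment recognizing human Fab′2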
[6] = target: T1, human FcγRIIb extracellular domain, …; experiment: ELISA, captured FcγR-GST;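 note: antibody variants applied as dilution series to receptor wells, with retained antibody read out via an HRP-linked goat F(ab′)2 fragment recognizing human Fab′2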
[7] = target: T4, mouse FcγRI extracellular domain, …; experiment: ELISA, captured FcγR-GST;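 note: antibody variants applied as dilution series to receptor wells, with retained antibody read out via an HRP-linked goat F(ab′)2 fragment recognizing human Fab′2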
[8] = target: T5, mouse FcγRIII extracellular domain, …; experiment: ELISA, captured FcγR-GST;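 note: antibody variants applied as dilution series to receptor wells, with retained antibody read out via an HRP-linked goat F(ab′)2 fragment recognizing human Fab′2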
[9] = target: T2, human FcγRIIa extracellular domain, …; experiment: ELISA, captured FcγR-GST
[10] = target: T8, human FcγRI extracellular domain, His-tagged GST fusion (human, UniProt P12314 16-292); experiment: ELISA, captured FcγR-GST
T8 construct: extracellular domain; also called hFcgRI; FcγRIA; not shown: C-terminal Gly/His6/GST tag

[11] = target: T6, human BR3 on the cell surface (BJAB …); experiment: competition with 25 nM FLAG-BAFF on BJAB cells
[12] = target: T8, human FcγRI extracellular domain, …; experiment: ELISA, FcγR-His-GST captured by anti-GST
[13] = target: T7, human BR3 extracellular domain; experiment: BIAcore, BR3 ECD on chip, IgG in solution, bivalent analyte model
[14] = target: T6, human BR3 on the cell surface (BJAB …); experiment: direct binding to BJAB cells, anti-human IgG Fc-HRP
[15] = target: T7, human BR3 extracellular domain; experiment: BIAcore, BR3 ECD on chip, IgG in solution, 1:1 Langmuir model
[16] = target: T9, human FcγRIII (CD16) on NK cells (human, UniProt P08637 17-254); experiment: cell-based or functional assay
[17] = target: T9, human FcγRIII (CD16) on NK cells; experiment: cell-based or functional assay; remark: listed apart in the source
[18] = target: T1, human FcγRIIb extracellular domain, …; experiment: Fcγ receptor ELISA; bar = fold increase in binding over Herceptin, log axis 0.1-1000
[19] = target: T8, human FcγRI extracellular domain, …; experiment: as above

Row | binding result [1] | Kd [4] | koff [4] | kon [4] | IC50 [11] | Kd [13] | koff [13] | kon [13] | EC50 [14] | Kd [15] | koff [15] | kon [15] | ADCC on BJAB cells with NK cells, relative fold increase compared to 9.1RF [17] | binding result [18] | binding result [19] | Binder | further results
1 | binds | – | – | – | – | – | – | – | – | – | – | – | – | – | – | V3-1m (antibody, mouse IgG2a, V domains shown, also called mV3-1) VH: EVQLVESGGGLVQPGGSLRLSCAASGFTISSNSIHWVRQAPGKGLEWVAWITPSDGNTDYADSVKGRFTISADTSKNTAYLQMNSLRAEDTAVYYCARRVCYNRLGVCAGGMDYWGQGTLVTVSS VL: DIQMTQSPSSLSASVGDRVTITCRASQDVSTAVAWYQQKPGKAPKLLIYSASFLYSGVPSRFSGSGSGTDFTLTISSLQPEDFATYYCQQSRITPPTFGQGTKVEIKR | –
2 | binds | – | – | – | – | – | – | – | – | – | – | – | – | – | – | V3-1h (antibody, human IgG1, V domains shown) VH: EVQLVESGGGLVQPGGSLRLSCAASGFTISSNSIHWVRQAPGKGLEWVAWITPSDGNTDYADSVKGRFTISADTSKNTAYLQMNSLRAEDTAVYYCARRVCYNRLGVCAGGMDYWGQGTLVTVSS VL: DIQMTQSPSSLSASVGDRVTITCRASQDVSTAVAWYQQKPGKAPKLLIYSASFLYSGVPSRFSGSGSGTDFTLTISSLQPEDFATYYCQQSRITPPTFGQGTKVEIKR | –
3 | – | 0.25 nM | 0.000253 s⁻¹ | 995000 M⁻¹ s⁻¹ | 8.8 nM | 0.52 nM | 0.000339 s⁻¹ | 658000 M⁻¹ s⁻¹ | 0.92 nM | 0.03 nM | 5.21e-05 s⁻¹ | 1.99e+06 M⁻¹ s⁻¹ | – | – | – | Hu9.1RF IgG1 (antibody, Humanized IgG1 with normal (fucosylated) glycans; also called WT; WT(9.1RF)) heavy: not shown light: DIQMTQSPSSLSASVGDRVTITCKSSQSLLYSSNQNNYLAWYQQKPGKAPKLLIYWASTRESGVPSRFSGSGSGTDFTLTISSLQPEDFATYYCQQYYTYPYTFGQGTKVEIKRTVAAPSVFIFPPSDEQLKSGTASVVCLLNNFYPREAKVQWKVDNALQSGNSQESVTEQDSKDSTYSLSSTLTLSKADYEKHKVYACEVTHQGLSSPVTKSFNRGEC | binding relative to 9.1-RF [2]: 1; binding relative to 9.1-RF [3]: 1; fold improvement in binding vs Herceptin (EC50herceptin/EC50sample) [5]: 0.7 fold; fold improvement in binding vs Herceptin (EC50herceptin/EC50sample) [6]: 0.7 fold; fold improvement in binding vs Herceptin (EC50herceptin/EC50sample) [7]: 1.2 fold; fold improvement in binding vs Herceptin (EC50herceptin/EC50sample) [8]: 0.8 fold; fold improvement in binding vs Herceptin (EC50herceptin/EC50sample) [9]: 2.3 fold; fold improvement in binding vs Herceptin (EC50herceptin/EC50sample) [10]: 1 fold; binding relative to 9.1-RF [12]: 1
4 | – | 0.23 nM | 0.000199 s⁻¹ | 852000 M⁻¹ s⁻¹ | 3.6 nM | 0.28 nM | 0.000149 s⁻¹ | 532000 M⁻¹ s⁻¹ | 0.49 nM | 0.04 nM | 5.41e-05 s⁻¹ | 1.49e+06 M⁻¹ s⁻¹ | – | – | – | afucosylated Hu9.1RF IgG1 (antibody, N-linked Fc carbohydrate lacks fucose (made in a cell line lacking fucosyltransferase; 100% afucosylated by paragraph 557), also called AF Hu9.1RF IgG1; Hu9.1RF IgG1 AF) heavy: not shown light: DIQMTQSPSSLSASVGDRVTITCKSSQSLLYSSNQNNYLAWYQQKPGKAPKLLIYWASTRESGVPSRFSGSGSGTDFTLTISSLQPEDFATYYCQQYYTYPYTFGQGTKVEIKRTVAAPSVFIFPPSDEQLKSGTASVVCLLNNFYPREAKVQWKVDNALQSGNSQESVTEQDSKDSTYSLSSTLTLSKADYEKHKVYACEVTHQGLSSPVTKSFNRGEC | ADCC EC50 on BJAB cells with NK cells, improvement over 2% afucosylated Hu9.1RF IgG1 [16]: > 6 fold; ADCC percent cytotoxicity on BJAB cells with NK cells, increase over 2% afucosylated Hu9.1RF IgG1 [16]: > 3 fold
5 | – | – | – | – | – | – | – | – | – | – | – | – | 10 fold | binds | binds | 9.1(10) (antibody, human IgG1, kappa, Fc variant of 9.1RF, expressed in 293 cells; also called 9.1RF 239D/268D/298A/326A/332E) heavy: EVQLVESGGGLVQPGGSLRLSCAASGFTVTAYYMSWVRQAPGKGLEWVGFIRDKANGYTTEYNPSVKGRFTISRDTSKNTFYLQMNSLRAEDTAVYYCAQVRRALDYWGQGTLVTVSSASTKGPSVFPLAPSSKSTSGGTAALGCLVKDYFPEPVTVSWNSGALTSGVHTFPAVLQSSGLYSLSSVVTVPSSSLGTQTYICNVNHKPSNTKVDKKVEPKSCDKTHTCPPCPAPELLGGPDVFLFPPKPKDTLMISRTPEVTCVVVDVSDEDPEVKFNWYVDGVEVHNAKTKPREEQYNATYRVVSVLTVLHQDWLNGKEYKCKVSNAALPAPEEKTISKAKGQPREPQVYTLPPSREEMTKNQVSLTCLVKGFYPSDIAVEWESNGQPENNYKTTPPVLDSDGSFFLYSKLTVDKSRWQQGNVFSCSVMHEALHNHYTQKSLSLSPG light: DIQMTQSPSSLSASVGDRVTITCKSSQSLLYSSNQNNYLAWYQQKPGKAPKLLIYWASTRESGVPSRFSGSGSGTDFTLTISSLQPEDFATYYCQQYYTYPYTFGQGTKVEIKRTVAAPSVFIFPPSDEQLKSGTASVVCLLNNFYPREAKVQWKVDNALQSGNSQESVTEQDSKDSTYSLSSTLTLSKADYEKHKVYACEVTHQGLSSPVTKSFNRGEC | –
6 | – | – | – | – | – | – | – | – | – | – | – | – | 10 fold | binds | binds | 9.1(9) (antibody, human IgG1, kappa, Fc variant of 9.1RF, expressed in 293 cells; also called 9.1RF 239D/268D/298A/332E) heavy: EVQLVESGGGLVQPGGSLRLSCAASGFTVTAYYMSWVRQAPGKGLEWVGFIRDKANGYTTEYNPSVKGRFTISRDTSKNTFYLQMNSLRAEDTAVYYCAQVRRALDYWGQGTLVTVSSASTKGPSVFPLAPSSKSTSGGTAALGCLVKDYFPEPVTVSWNSGALTSGVHTFPAVLQSSGLYSLSSVVTVPSSSLGTQTYICNVNHKPSNTKVDKKVEPKSCDKTHTCPPCPAPELLGGPDVFLFPPKPKDTLMISRTPEVTCVVVDVSDEDPEVKFNWYVDGVEVHNAKTKPREEQYNATYRVVSVLTVLHQDWLNGKEYKCKVSNKALPAPEEKTISKAKGQPREPQVYTLPPSREEMTKNQVSLTCLVKGFYPSDIAVEWESNGQPENNYKTTPPVLDSDGSFFLYSKLTVDKSRWQQGNVFSCSVMHEALHNHYTQKSLSLSPG light: DIQMTQSPSSLSASVGDRVTITCKSSQSLLYSSNQNNYLAWYQQKPGKAPKLLIYWASTRESGVPSRFSGSGSGTDFTLTISSLQPEDFATYYCQQYYTYPYTFGQGTKVEIKRTVAAPSVFIFPPSDEQLKSGTASVVCLLNNFYPREAKVQWKVDNALQSGNSQESVTEQDSKDSTYSLSSTLTLSKADYEKHKVYACEVTHQGLSSPVTKSFNRGEC | –
